# Results reported in the DeepSol protein solubility set.
# Test: soluble on expression in E. coli; label from the status in PepcDB or PDB records
row,Sequence,soluble on expression in E. coli
1,MGSDKIHHHHHHMIQLAFTKTEISADTAVKQGAALRQMNELLERLSTAPKYHTLTKKDRAQLSREGYAADLVDNLVLITQRKEESTVTDNDNLVVGFTYAAFDPALYANETLKNHFKQMSQGCCCFCESFLMPTASGHISHYRPVQQLDLEGVEHTKPNSECSPYFSEAYQQENLVYVCSGCDVTHKAGRFPIAGERFPHVALSTENALLVNPYQENPRDFIRFNLCNGHAYPFDQACAFYADTQKLTEQDVEALLWKTPSAIPNQVDEAGALLTDSGVEQAFTFWLKSEASQRQSSRGAVTIVTLGLNRSDLVLARLMTLKQYHNDFITHKAALAQPLMPEDIATIAYRSLALDAFATWQSIANGTGSNLANNEGTNKGTNKGTNIGTNIGASEDTNVANSLPLMANTVLKLREQANNTVENPELDILLPSWFRCCLSYLVLESELQQTGKRRLVFLCNQDRLYGETDTEKCIFLSIKWQRDLHKVIKVRSKRNIWEASFSELANSRPHELINLFANNDVWVEGNFQPLA,not soluble
2,MGSDKIHHHHHHMIREIRITSFEGLISEMESLGKELWFRGVTNKNYSLIPGSVRFDLNGWKEVSAVLDFMASYQNHHDYIESNWELYSLMQHYGFPTRLLDWSTSVIVALYFALDGDADVDDAGSAIDRVVWGMTTGMLNNLNFLNRRVIPTAIGKATTGEKYLPSPLRKKEGDDFEFEKNPLAVKMPFTNKRVSAQKGCFTIHGSNPKGIEEIMEENGLGSELIKFVFDEEAAMAIRKTLYKLDINEDDIYQDLNSLSKRIVLVNPNWTLLVENFQILQVTDHH,not soluble
3,MGSDKIHHHHHHMIRKNHKPAFCDENPIDCHFDVKSYPAGTTVHNNDTNIIYLIFCMKGHARITSTFFHDEILCAGEVMFVPHGSEYSGVALSDVTLLVHKFNNTVCRAENCILSYLYSHKNIDSKIYCCQRRT,not soluble
4,MGSDKIHHHHHHMISAEQLVFTYHDQKNPACQISTCQIASGQFIVLCGPSGSGKSTFLKLLNGIIPDYYAGKYEGRLDVADCQAGRDSVETFSRSVASVFQNPASQFFYREVQHELVFPCENQGLDAKVIMKRLWTLAEDFAFAELLNKDMFGLSGGQKQRVAIATAIMQGTNIMLFDEPTANLDSAGIAAVKAYLTQLKAAGKTIIVAEHRLHYLMDLADNFFYFKNGRLTDKLTTQNLLALTDEQRQDMGLRRLDLSDLKPVLAGKIESQHYRPDDSLCIEHLTVRAGSKILRCIEQLSFAVGSISGITGSNGLGKSQLVYYIAGILDDKKATIKFQGIPLSAKQRLSKTSIVLQEVSLQLFAESVSKEVNLGHERHPRTTEVIERLSLTTLLERHPASLSGGEQQRVMIAASLLADKDILIFDEPSSGLDLLQMKALANLLMQLKTQHKVVILISHDEELLSSVCDTIYQMLP,not soluble
5,MGSDKIHHHHHHMISSSTVHAFYFSAKYSSFSRAAEILETTQPNISGQIIKLEKDLDTILFIRKQGRVSLSKEGEKLYLVAEKIVNSYKEFDSVVEYFFEEEPIVIVTQPRLYTKYVAPYLTDDLINNNLFHIKTGELTAIKSWLDKEDADIVITEGLFDSHSRYINEGVIDVLKFSWAKKVNEQFDSPCPTLVHSKVWDHWHDLSSALNRNKEFKRKLIIDTPDFAERLIESGVGIGLLPNVMISNNANLEVCHGPTRNNVLGPICLYSKKYSQHKNLRSLVNMFKKESSDS,not soluble
6,MGSDKIHHHHHHMITEKVLSYKSPLYGRRTGSLKLRPMNFFTLREFFPSCSWEELVEIYGMTDGIPFYIIQVKPPFWELLEEELKNPISFFKDEVDFLLRYEFSEVTTYKRILEAIALGKTTLKEIKDFTGLRNSDITPYLRNLIEADLIVREVPITEKKTSKKGRYYVLDNFLAFWFRFIYPNLSRIEEGIFNVDEIKGEYPRYLGWVFEKIARQFLIELNKINKLPFKFEKIGRWWYKEEEIDIVALNEREKKGLLVEVKWKTLKEREAREILEVLNKKSKLLGLEGWEKYYGLIAREIKRKEPLIEDGYLVWDLEDFEEIVKQKSREGL,not soluble
7,MGSDKIHHHHHHMITSKDNLTLIFVHACGVGNWMWYKQKDYFSNFSCMFIELPEHGDNYNIQPFSVKSAIKMIDKTVRSASGEVVLIGHEMGARLILNYLAEYTNDKVKKIVLSSTMIKTVKEGLFHKILPAKIIEKEFEKKNKNLQNIDFIKKTLDYYGVEEEYKDYYLNDMKRYKPRQLIKIIQEGLLKKLPLNLFIDNDIPALILVGEKETNANRLSAKLLSEYFSNSELIIVDNSTDNHIRTNSMVFNDRVKNFILT,not soluble
8,MGSDKIHHHHHHMITYQEQWQKMQMALAIRRIPQAMLFSGSLHCGLIEFTNQVIKLLLCKIKQNEPCLTCMDCQMIERFEHPDVEWIKPERSGGIIKIDQIRGLQSTAFLTPQRTNHKLIIIESAESMNIAASNALLKILEEPAQHTIFILLAQQIGNIPPTVLSRCQITQFAVFDELPCNNLLALGEYYTQELNSTMVFKHSESILEGLIAIIERREHPCTLAAQWIQHELSAFLWFLYLIYSQLQYMHLFRVAYSGTLTKQLNKLSSLLNPVMIFAQVDKINTLLRKLSHNMNINHTLVLEDLLFSLVVDY,not soluble
9,MGSDKIHHHHHHMIVLIGGEKGGSGKSCLAQNIAVFLTTECGASVIMVDCDPQRTTSDWIQARNNNPKLASINCVQLYGKIRNDLLSLEQHYDFVIVDCGGQDNLALRATMSVASHILMPLRPKRRDLKTVSHMDDIVATCKMINPKLHASFVITQCPNLPNQANRILEAKEICKTYDINVLDSITYSRNIYDDSEESGLSVLEIEPKGKAAAEIRAIACEMFQVDCAASLTALLKPSTSIAGHHSQINQNQSNHLRGQYGTQRPQEKRYAI,not soluble
10,MGSDKIHHHHHHMIYFETERLICRAFERADLQAFTAYRADPEVARYQSWQDYQYQDALALFENLQQTPFGANGTWMQLALVCRQTQALVGDLALHFIDAQQVEIGFTLASEHQGKGLAREALQGLLVYLFERLGKHRVSAITDVKNRAAWGLLERLGFRREAHYRDNIFFKGSWGSEYGYGLLAREWRQAQVGEPLQEFRLIKRVAPLNDFLRLRQITGLTPRSREAAELGLPLSLFGVHLLAGDRVLAMGRVVGDGALNFELVDIAVDPEYQGRGLGSAIMSAIMAYLDEMAPKGAYITLMADVPALYLKFGFEYSRPASEGMYKLQA,not soluble
11,MGSDKIHHHHHHMIYIGLPQWSHPKWARLGITSLEEYARHFNCVEGNTTLYALPKAEIVDRWYAQTTDDFRFCFKFPATISHQAALRHCDDLVQAFFTRLAPLETRIGQYWLQLPAAFGPRDLPALWQFLDALPATFTYGVEVRHPCFFDKGEDEQRLNRGLHARGVNRVILDSRPVHAAHPHSEAVRDAQRKKPKVPVHAVVTASHPMVRFIGSDNMAQNREFFAAWLQKLPQWRQTTTPFLFLHTPDIAQAPELVNTLWHDLRSVLPEIGTAPSIPQQSSLF,not soluble
12,MGSDKIHHHHHHMKADRLLEIVALLQNHEKLTTHQLVDHLHVSSRTILRDMDTLSALGIPIVSERGRAGGWKLMDHFRSQLSGMSMTELKALFILPSDKVLKDLGIPTKGRDIRLNMLSSLQGNRKHAVRPYLEKVYIDTGTWKPSKERMEEFNVVQQAVFEEKKLYIVYENAKGEQRERLISPLGLVAKGSAWYVVATVETGDIRNFKLSRIKDSKLVREPIVKPETFSLATYWNESKEQFVQTLPSYEATVLAHDSIIHRLTFTGKFVENIQVGHRDDEWVTVNLCFHDEQEITEYVLGFGGRMKLVTPKHLIGRIVQQASAVIQQYASDKEPTNETKEGL,not soluble
13,MGSDKIHHHHHHMKCLLCGQTMKTVLTFSSLLLLRNDDSCLCSDCDSTFERIGEENCPNCMKTELSTKCQDCQLWCKEGVEVSHRAIFTYNQAMKDFFSRYKFDGDFLLRKVFASFLSEELKKYKEYQFVVIPLSPDRYANRGFNQVEGLVEAAGFEYLDLLEKREERASSSKNRSERLGTELPFFIKSGVTIPKKILLIDDIYTTGATINRVKKLLEEAGAKDVKTFSLVR,not soluble
14,MGSDKIHHHHHHMKDDVSAPSRYRPSIFAVPFQRHGDGTAVELLSPSEQDALIAISRLVTVRRHTVLYPEGGDARFAYNIVSGVAETYQLLPNGDKRITAFLFPRDLMGLSENGAYVATAQSLTPLVAYRIPVEALAEILERDPRLDIGLLCKLCHELRRSQHHTITVSKNEAPARLASFLVWIQHAYPEEGRAEGEVMLPMSRHDIADYLGLSVESVSRGLHVLEAQDAVRRKGPRLVTVLDPAKLRRLAGQD,not soluble
